This is an account of results in patent publication US20180371053A1 (UNIVERSITY OF NORTH CAROLINA AT CHAPEL HILL, published 2018).

The target of one assay is T1, murine B7-H3 (mouse, UniProt Q8VE98 29-316).
T1 construct: whole, on cells; also called mB7-H3; mouse B7-H3
T1 sequence (looked up): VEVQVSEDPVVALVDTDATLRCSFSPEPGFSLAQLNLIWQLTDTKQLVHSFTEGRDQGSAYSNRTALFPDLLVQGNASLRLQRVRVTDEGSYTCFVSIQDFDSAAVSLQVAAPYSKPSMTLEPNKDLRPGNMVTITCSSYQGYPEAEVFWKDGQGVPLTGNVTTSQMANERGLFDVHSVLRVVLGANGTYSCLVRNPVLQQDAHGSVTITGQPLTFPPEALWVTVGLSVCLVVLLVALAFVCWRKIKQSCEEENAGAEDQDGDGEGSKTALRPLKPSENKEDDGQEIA
The assay can be described thus: flow cytometry on Raji clones expressing mB7-H3.

A further assay addresses T2, human 4Ig-B7-H3 (human, UniProt Q5ZPR3 29-534).
T2 construct: whole, on cells; also called 4Ig-hB7-H3; Raji-4IgB7-H3
T2 sequence (looked up): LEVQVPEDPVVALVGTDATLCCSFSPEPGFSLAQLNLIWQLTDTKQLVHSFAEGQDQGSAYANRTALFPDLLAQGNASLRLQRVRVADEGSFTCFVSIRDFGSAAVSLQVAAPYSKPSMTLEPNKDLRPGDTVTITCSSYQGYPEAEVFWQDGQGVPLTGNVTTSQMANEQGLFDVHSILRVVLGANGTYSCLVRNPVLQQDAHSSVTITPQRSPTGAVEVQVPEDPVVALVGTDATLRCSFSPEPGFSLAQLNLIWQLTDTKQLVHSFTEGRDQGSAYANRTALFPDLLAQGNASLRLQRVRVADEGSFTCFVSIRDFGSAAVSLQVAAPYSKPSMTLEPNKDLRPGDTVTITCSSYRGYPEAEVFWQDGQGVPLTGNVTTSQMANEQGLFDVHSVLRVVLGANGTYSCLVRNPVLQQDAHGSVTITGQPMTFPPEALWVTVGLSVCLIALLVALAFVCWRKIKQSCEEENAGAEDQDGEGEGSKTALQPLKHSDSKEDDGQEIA
As to the kind of experiment: flow cytometry on Raji clones expressing 4Ig-hB7-H3. (In general: Flow cytometry measures light scatter and fluorescence of single cells or particles in a stream.)

B1: anti-B7-H3 mAb 376.96 (antibody, V domains shown)
VH: EVQLVESGGGLVKPGGSLKLSCEASRFTFSSYAMSWVRQTPEKRLEWVAAISGGGRYTYYPDSMKGRFTISRDNAKNFLYLQMSSLRSEDTAMYYCARHYDGYLDYWGQGTTLTVSS
VL: DIVMTQSHKFMSTSIGARVSITCKASQDVRTAVAWYQQKPGQSPKLLIYSASYRYTGVPDRFTGSGSGTDFTFTISSVQAEDLAVYYCQQHYGTPPWTFGGGTKLEIK
notes: The residue ranges are my derivation
On to B1, for which the binding result in the assay with murine B7-H3 and with human 4Ig-B7-H3 was “binds” in each case.
